Test results reported in publication PMC12273628, “In vitro reconstitution of a minimal human centrosome scaffold capable of forming and clustering microtubule asters” (Journal of Cell Science, 2025).

Legend:
[1] = target: GFP::CDK5RAP2 isoform B, full length, wild type (assembled into micron-scale scaffolds with anti-CM2 IgM) (human) (UniProt Q96SN8); assay: partitioning into in vitro scaffolds (confocal fluorescence microscopy); 4-component asters: 167 nM GFP::CDK5RAP2, 33 nM mBFP::γ-TuRCs, 33 nM mCherry::HSET, 13 µM HiLyte-647-labeled α/β-tubulin; 50 mM KCl, 25 mM HEPES pH 7.4, IgM+; compared with 3-component reactions without HSET
[2] = target: T1, GFP::CDK5RAP2 isoform B, full length, wild type (assembled into micron-scale scaffolds with anti-CM2 IgM) (human, UniProt Q96SN8-4 1-1814); assay: partitioning into in vitro scaffolds (confocal fluorescence microscopy); 120 nM GFP::CDK5RAP2 assembled with anti-CM2 IgM, 50 nM mCherry, mCherry::HSET or mCherry::HSET(ΔIDR); 50 mM KCl, 25 mM HEPES; partition coefficient of mCherry signal; conditions: both partners purified
T1 construct: CDK5RAP2 (CEP215) isoform B, human, Protein ID Q96SN8-4, lacking a.a; 1576-1654 of the longest isoform; full length; In the assays the protein stood as micron-scale assemblies nucleated by an anti-CM2 IgM; also called CEP215; GFP::CDK5RAP2(WT); source: SF9 insect cells (baculovirus), purified (MBP selector beads, PreScission cleavage, Ni-NTA to remove the protease)
T1 sequence (Q96SN8 other isoform, or with tags, fused parts or gaps): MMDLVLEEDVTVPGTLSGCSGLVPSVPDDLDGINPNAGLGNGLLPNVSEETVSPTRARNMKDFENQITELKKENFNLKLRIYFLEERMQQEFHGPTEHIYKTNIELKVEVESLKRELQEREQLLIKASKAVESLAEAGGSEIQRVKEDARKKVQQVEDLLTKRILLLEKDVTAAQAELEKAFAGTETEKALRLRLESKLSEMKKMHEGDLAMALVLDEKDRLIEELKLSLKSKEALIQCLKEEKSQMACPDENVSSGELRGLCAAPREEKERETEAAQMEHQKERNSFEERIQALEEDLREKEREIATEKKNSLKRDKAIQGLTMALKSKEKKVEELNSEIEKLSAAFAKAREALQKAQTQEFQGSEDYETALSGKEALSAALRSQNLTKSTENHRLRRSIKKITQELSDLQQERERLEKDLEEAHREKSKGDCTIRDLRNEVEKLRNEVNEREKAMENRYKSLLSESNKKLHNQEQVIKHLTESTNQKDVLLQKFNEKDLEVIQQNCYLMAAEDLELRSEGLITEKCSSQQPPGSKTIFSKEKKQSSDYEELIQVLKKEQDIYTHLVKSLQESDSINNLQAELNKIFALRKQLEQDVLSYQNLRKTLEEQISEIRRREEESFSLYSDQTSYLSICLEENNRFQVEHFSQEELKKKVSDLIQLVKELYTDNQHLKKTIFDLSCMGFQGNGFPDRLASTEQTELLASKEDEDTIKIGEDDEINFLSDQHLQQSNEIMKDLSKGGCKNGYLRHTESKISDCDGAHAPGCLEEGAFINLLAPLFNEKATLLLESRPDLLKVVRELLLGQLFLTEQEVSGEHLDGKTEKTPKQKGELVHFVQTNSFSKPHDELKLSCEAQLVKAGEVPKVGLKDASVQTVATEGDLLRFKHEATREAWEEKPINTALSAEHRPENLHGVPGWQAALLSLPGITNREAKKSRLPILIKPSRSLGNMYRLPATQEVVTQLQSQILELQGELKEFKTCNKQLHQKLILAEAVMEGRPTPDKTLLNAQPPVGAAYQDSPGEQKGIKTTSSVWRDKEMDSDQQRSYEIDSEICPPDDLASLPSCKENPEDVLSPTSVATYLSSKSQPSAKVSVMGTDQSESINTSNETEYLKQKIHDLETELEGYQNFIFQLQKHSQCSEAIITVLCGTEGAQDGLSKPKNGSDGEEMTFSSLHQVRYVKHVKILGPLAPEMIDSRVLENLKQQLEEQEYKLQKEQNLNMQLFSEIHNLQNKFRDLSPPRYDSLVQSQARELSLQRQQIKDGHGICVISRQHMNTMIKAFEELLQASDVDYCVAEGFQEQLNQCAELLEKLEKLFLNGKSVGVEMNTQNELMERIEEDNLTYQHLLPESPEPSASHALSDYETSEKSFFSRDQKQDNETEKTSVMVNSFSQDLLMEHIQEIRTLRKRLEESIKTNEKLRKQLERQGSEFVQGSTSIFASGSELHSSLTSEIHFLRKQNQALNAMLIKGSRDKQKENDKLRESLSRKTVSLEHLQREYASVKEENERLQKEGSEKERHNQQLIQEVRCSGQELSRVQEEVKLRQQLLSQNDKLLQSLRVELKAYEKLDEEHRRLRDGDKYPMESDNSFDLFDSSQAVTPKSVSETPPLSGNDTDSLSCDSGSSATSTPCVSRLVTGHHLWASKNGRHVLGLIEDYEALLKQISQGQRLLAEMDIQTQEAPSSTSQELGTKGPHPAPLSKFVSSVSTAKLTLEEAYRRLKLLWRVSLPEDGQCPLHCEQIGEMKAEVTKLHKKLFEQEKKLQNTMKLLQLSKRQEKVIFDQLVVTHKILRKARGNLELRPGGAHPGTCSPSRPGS

Chain of GFP::CDK5RAP2 isoform B, full length, wild type (assembled into micron-scale scaffolds with anti-CM2 IgM) (human) (Q96SN8 other isoform, or with tags, fused parts or gaps): as above

human γ-tubulin ring complex tagged with blue fluorescent protein (mBFP::γ-TuRC) (from UniProt P23258 1-451)
fold more γ-TuRC recruited with mCherry::HSET than without [1]: 1.4 fold

B1: mCherry::HSET, full length, wild type (natural protein, human, UniProt Q9BW19 1-673, looked up)
chain: MDPQRSPLLEVKGNIELKRPLIKAPSQLPLSGSRLKRRPDQMEDGLEPEKKRTRGLGATTKITTSHPRVPSLTTVPQTQGQTTAQKVSKKTGPRCSTAIATGLKNQKPVPAVPVQKSGTSGVPPMAGGKKPSKRPAWDLKGQLCDLNAELKRCRERTQTLDQENQQLQDQLRDAQQQVKALGTERTTLEGHLAKVQAQAEQGQQELKNLRACVLELEERLSTQEGLVQELQKKQVELQEERRGLMSQLEEKERRLQTSEAALSSSQAEVASLRQETVAQAALLTEREERLHGLEMERRRLHNQLQELKGNIRVFCRVRPVLPGEPTPPPGLLLFPSGPGGPSDPPTRLSLSRSDERRGTLSGAPAPPTRHDFSFDRVFPPGSGQDEVFEEIAMLVQSALDGYPVCIFAYGQTGSGKTFTMEGGPGGDPQLEGLIPRALRHLFSVAQELSGQGWTYSFVASYVEIYNETVRDLLATGTRKGQGGECEIRRAGPGSEELTVTNARYVPVSCEKEVDALLHLARQNRAVARTAQNERSSRSHSVFQLQISGEHSSRGLQCGAPLSLVDLAGSERLDPGLALGPGERERLRETQAINSSLSTLGLVIMALSNKESHVPYRNSKLTYLLQNSLGGSAKMLMFVNISPLEENVSESLNSLRFASKVNQCVIGTAQANRK
notes: HSET (KifC1), kinesin-14 family motor, human, full length; also called KifC1; mCherry::HSET(WT); source: SF9 insect cells (baculovirus), purified (Ni-NTA)
binding result [2]: binds
